In PMC3564526 (Molecular Biology of the Cell, 2013):

Target: T1, PH^Ste5 domain (Ste5 aa 373–537), bacterially expressed and purified (S. cerevisiae, UniProt P32917 373-537)
T1 sequence (looked up): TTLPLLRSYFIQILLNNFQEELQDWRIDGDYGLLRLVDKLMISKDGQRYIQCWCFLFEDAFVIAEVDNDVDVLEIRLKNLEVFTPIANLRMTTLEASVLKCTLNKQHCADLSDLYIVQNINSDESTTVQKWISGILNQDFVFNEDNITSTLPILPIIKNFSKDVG
Experiment: SPR

B1: His-tagged RBL^Ste11 domain (Ste11 aa 116–236) (domain or fragment, S. cerevisiae, UniProt P23561 116-236, looked up)
chain: PEKHCVIFILNDGSAKKVNVNGCFNADSIKKRLIRRLPHELLATNSNGEVTKMVQDYDVFVLDYTKNVLHLLYDVELVTICHANDRVEKNRLIFVSKDQTPSDKAISTSKKLYLRTLSALS
  Kd: ~200 nM
